What was measured:
[1] = target: T1, recombinant human cathepsin S propeptide (residues 17-113) with N-terminal hexahistidine tag, expressed from pQE30
T1 chain: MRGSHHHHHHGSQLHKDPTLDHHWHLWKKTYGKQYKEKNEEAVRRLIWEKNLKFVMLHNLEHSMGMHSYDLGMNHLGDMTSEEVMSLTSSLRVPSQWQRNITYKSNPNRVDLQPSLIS

B1: human cathepsin S (Calbiochem) (protein)
chain: LPDSVDWREKGCVTEVKYQGSCGACWAFSAVGALEAQLKLKTGKLVSLSAQNLVDCSTEKYGNKGCNGGFMTTAFQYIIDNKGIDSDASYPYKAMDLKCQYDSKYRAATCSKYTELPYGREDVLKEAVANKGPVSVGVDARHPSFFLYRSGVYYEPSCTQNVNHGVLVVGYGDLNGKEYWLVKNSWGHNFGEEGYIRMARNKGNHCGIASFPSYPEI
Fc-control protein
  hydrolysis of Z-VVR-AMC by CatS (fluorometric assay): The Fc-control protein (200 nM) had no discernable effects on CatS activity
[1]
  elastinolytic turnover of Elastin-DQ by CatS over a 60 minute incubation: the inventors were able to demonstrate inhibition of this activity
  hydrolysis of Cbz-Val-Val-Arg-AMC by CatS (fluorometric assay), rCatSPP 0 nM to 500 nM: the dose-dependent inhibition of CatS activity was observed

From US20100104554
